Test results published in patent US20210139605A1 (AGENCY FOR SCIENCE TECHNOLOGY AND RESEARCH, published 2021).

Legend:
[1] = target: T1, human HER-2 protein (soluble / recombinant, used in SPR) (human, UniProt P04626 23-652); assay: SPR, immobilized HER2 protein
T1 construct: also called immobilized HER2 protein; recombinant HER-2

[2] = target: T1, human HER-2 protein (soluble / …); assay: SPR, human HER2 immobilised, Fab flown, 1:1 Langmuir model
Protocol: Rate constants of association, dissociation (kₐ, kd) and the equilibrium dissociation constants (KD) were determined for anti-HER2 Fab molecules. Human HER2 protein (50 μg/mL) was immobilised on the SPR sensor chip and was exposed to five different concentrations of each Fab in 2- or 3-fold dilutions over the flow cells. 1:1 Langmuir model was used to derive the constants.

[3] = target: T1, human HER-2 protein (soluble / …); assay: SPR
EGFR [4] = target: T2, EGFR (UniProt P00533 25-645, limits assumed); assay: SPR, EGFR immobilised on the chip, antibody flowed; concentration not given [panel P1C5]
T2 construct: also called HER1
Source text: (§1) In order to assess the specificity of the binding, molecules closely related to HER-2 were also used as bound antigens, namely EGFR and HER-3.

HER-3 [5] = target: T3, HER-3 (UniProt P21860 20-643, limits assumed); assay: SPR, HER-3 immobilised on the chip, antibody flowed; concentration not given [panel P1C5]
T3 sequence (P21860 20-643 limits assumed): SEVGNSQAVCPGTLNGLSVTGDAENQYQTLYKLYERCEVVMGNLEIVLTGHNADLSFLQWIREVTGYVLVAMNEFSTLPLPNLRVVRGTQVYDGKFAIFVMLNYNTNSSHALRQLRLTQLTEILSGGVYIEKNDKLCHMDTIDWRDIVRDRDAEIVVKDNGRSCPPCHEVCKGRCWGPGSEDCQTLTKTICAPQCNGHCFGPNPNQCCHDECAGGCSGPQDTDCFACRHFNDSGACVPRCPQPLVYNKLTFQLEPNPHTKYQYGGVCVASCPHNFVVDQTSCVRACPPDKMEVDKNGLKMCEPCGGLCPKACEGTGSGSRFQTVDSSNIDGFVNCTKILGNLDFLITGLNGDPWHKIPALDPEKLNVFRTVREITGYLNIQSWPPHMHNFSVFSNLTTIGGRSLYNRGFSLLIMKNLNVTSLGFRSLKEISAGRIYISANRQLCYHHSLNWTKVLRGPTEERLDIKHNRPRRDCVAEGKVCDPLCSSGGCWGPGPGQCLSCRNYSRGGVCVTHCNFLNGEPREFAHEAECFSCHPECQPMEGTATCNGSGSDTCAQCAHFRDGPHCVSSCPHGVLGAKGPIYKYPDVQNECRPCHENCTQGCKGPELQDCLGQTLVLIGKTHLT
Source text: as §1

EGFR [6] = target: T2, EGFR; assay: SPR, EGFR immobilised on the chip, antibody flowed; concentration not given [panel P1E4]
Source text: as §1

HER-3 [7] = target: T3, HER-3; assay: SPR, HER-3 immobilised on the chip, antibody flowed; concentration not given [panel P1E4]
Source text: as §1

EGFR [8] = target: T2, EGFR; assay: SPR, EGFR immobilised on the chip, antibody flowed; concentration not given [panel P1A3]
Source text: as §1

HER-3 [9] = target: T3, HER-3; assay: SPR, HER-3 immobilised on the chip, antibody flowed; concentration not given [panel P1A3]
Source text: as §1

| Binder | koff [1] | Kd [2] | koff [2] | kon [2] | Kd [3] | further results |
| --- | --- | --- | --- | --- | --- | --- |
| P1C5 antibody (antibody, V domains shown) VH: QVQLQESGPGLVKPSETLSLTCTVSGGSISSSSYYWGWIRQPPGKGLEWIGSIYYSGSTYYNPSLKSRVTISVDTSKNQFSLKLSSVTAADTAVYYCARYAPDSSGYLVAFDIWGQGTMVTVSS VL: QTVVTQEPSFSVSPGGTVTLTCGLSSGSVSTGYYPSWYQQTPGQAPRTLIYSTNSRSSGVPDRFSGSILGNKAALTITGAQADDESDYYCVLYMGSGISVFGGGTKLTVLG |  |  |  |  | 12.7 nM | binding result (EGFR [4]): no binding; binding result (HER-3 [5]): no binding |
| P1E4 antibody (antibody, V domains shown) VH: QVQLQQWGAGLLKPSETLSLTCAVYGGSFSGYYWSWIRQPPGKGLEWIGEINHSGSTNYNPSLKSRVTISVDTSKNQFSLKLSSVTTADTAVYYCARMGINSGGYLYGMDVWGQGTTVTVSS VL: QTVVTQEPSFSVSPGGTVTLTCGLSSGSVSTSYYPSWYQQIPGQAPRTLIYTTNIRSSGVPDRFGGSILGNKAALTITGAQAEDESDYYCMLYMGSGIWVFGGGTKLTVLG |  |  |  |  | 5.3 nM | binding result (EGFR [6]): no binding; binding result (HER-3 [7]): no binding |
| P1A3 antibody (antibody, V domains shown) VH: EVQLVQSGTEVKKPGASVRVSCKSSGYTFTSYYIHWVRQAPGQGLEWMAIINPGNGDTNYAQRFQGRVTMTRDTSTSTVYMELRSLRSDDTAVYFCAREIASYSGSYYDYWGQGTLVTVSS VL: QAVVTQEPSLSVSPGGTVTLTCGLSSGSVSTGHYASWYQQTPGQAPRTLFYNTNTRSSGVPDRFSGSIVGNKAALTITGAQADDESDYYCVLYVGDGIWVFGGGTKLTVLG |  |  |  |  | 21.4 nM | binding result (EGFR [8]): no binding; binding result (HER-3 [9]): no binding |

Now from value to binder, other results behind:

| koff [1] | Kd [2] | koff [2] | kon [2] | Kd [3] | Binder | further results |
| --- | --- | --- | --- | --- | --- | --- |
| 0.013 s⁻¹ | 16.5 nM | 0.026 s⁻¹ | 1.59e+06 M⁻¹ s⁻¹ |  | PFE1 Fab (Fab, V domains shown, Printed entries run through CL and CH1 (Fab chains); Label E1 tied to PFE1 by inference) VH: EVQLVQSGGGVVQPGRSLRLSCAASGFTFSSYAMHWVRQAPGKGLEWVAVISYDGSNKYYADSVKGRFTISRDNSKNTLYLQMNSLRAEDTAVYYCARSRGYYGMDVWGQGTTVTVSS VL: DVVMTQSPLSLPVTLGQPASISCTSSQSLVYSDGNTYLNWFQQRPGQSPRRLIYKVSKRDSGVPDRFSGSGSGTDFTLKISRVEAEDVAIYYCMQGTHWPLTFGGGTKVEIKR |  |
| 0.0322 s⁻¹ | 17.6 nM | 0.078 s⁻¹ | 4.41e+06 M⁻¹ s⁻¹ |  | PFB4 Fab (Fab, V domains shown, Printed entries run through CL and CH1 (Fab chains); Label B4 tied to PFB4 by inference) VH: EVQLVQSGGGVVQPGRSLRLSCAASGFTFSSYGMHWVRQAPGKGLEWVAVISYDGSNKYYADSVKGRFTISRDDSKNTLYLQMNSLRAEDTAVYYCAKDRGYYGMDVWGQGTTVTVSS VL: QAVVIQEPSLTVSPGGTVTLTCGSTTGAVTSGHYPSWFQQKPGQAPRALIYSTSNKHSWTPARFSGSLLGGKAALTLSGVQPEDEAEYYCLLYYGGARVFGGGTKLTVLG |  |
| 0.0158 s⁻¹ | 183 nM | 0.019 s⁻¹ | 108000 M⁻¹ s⁻¹ |  | PFG3 Fab (Fab, V domains shown, Printed entries run through CL and CH1 (Fab chains); Label G3 tied to PFG3 by inference) VH: EVQLVQSGAEVKKPGTSVTVSCRASGFTFSDYYIHWVRQAPGQGLEWMGWVSAYNGDTNYAQKFQGRVTVTTDTSTSTAYMELRSLRSDDTAVYFCAREIASYSGSYYDYWGQGTLVTVSS VL: QAVVLQEPSFSVSPGGTVTLTCGLTSGAVSSSYYPSWYQQTPGQAPRTLIYNTDIRFSGVPDRFSGSILGNKAALTITGAQADDESDYYCVLYMGSGISVFGGGTKLTVLG |  |
| 0.0141 s⁻¹ | 305 nM | 0.014 s⁻¹ | 44500 M⁻¹ s⁻¹ |  | PFF5 Fab (Fab, V domains shown) VH: QVQLQESGPGLVKPSETLSLTCTVSGGSISSSSYYWGWIRQPPGKGLEWIGSIYYSGSTYYNPSLKSRVTISVDTSKNQFSLRLSSVSAADTAVYYCARYAPDSSGYLVAFDIWGQGTMVTVSS VL: QAVVIQEPSFSVSPGGTVTLTCGLSSGSVSTTYYPSWYQQTPGQAPRTLIYSTNTRSSGVPDRFSGSILGNKAALTITGAQADDESDYYCVLYMGNGISVFGGGTKLTVLG |  |
